Biological target: urinary IFNAB-BPII (human) (UniProt P48551)
Experiment: iRIA; control antibody (dilution 1:1) captured on goat anti-mouse F(ab)2, then 125I-IFNAB-BP

urinary IFNAB-BPII (human), sequence (P48551 other isoform, or with tags, fused parts or gaps): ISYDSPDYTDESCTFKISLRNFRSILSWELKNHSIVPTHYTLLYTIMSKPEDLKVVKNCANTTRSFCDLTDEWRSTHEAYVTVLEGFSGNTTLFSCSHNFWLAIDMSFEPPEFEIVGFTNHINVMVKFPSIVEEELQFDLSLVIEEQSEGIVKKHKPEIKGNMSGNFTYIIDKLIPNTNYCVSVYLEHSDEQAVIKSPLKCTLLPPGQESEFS

iRIA - CPM: 20 cpm
Substance: Control antibody

From patent US6458932 (YEDA RESEARCH AND DEVELOPMENT, dated 2002)
